We go through twelve molecules from patent US20230406885A1, “CYCLIC PEPTIDES FOR TRAPPING INTERLEUKIN-1 BETA” (MERCK SHARP & DOHME LLC, priority 2022, published 2023).

*1 amine or outer side, *2 acyl side, *3 side chain or, on linkers, in order; H or OH if unused. [ ]: non-standard residue; d: D form. TyrEtNAc = L-tyrosine O-ethyl acetamide, (S)-3-(4-(2-acetamidoethoxy)phenyl)-2-aminopropanoic acid, CC(=O)NCCOc1ccc(C[C@H](N[*:1])C(=O)[*:2])cc1; dDabMe3 = [(R)-3-amino-3-carboxypropyl]-trimethylazanium, C[N+](C)(C)CC[C@@H](N[*:1])C(=O)[*:2]; DapAc = (S)-3-acetamido-2-aminopropanoic acid, CC(=O)NC[C@H](N[*:1])C(=O)[*:2]; Phe(4-(4-Ac-piperazinyl)) = CC(=O)N1CCN(c2ccc(C[C@H](N)C(=O)O)cc2)CC1; Pro(trans-4-NH2) = O=C([C@@H]1C[C@@H](N[*:3])CN1[*:1])[*:2]; Bip(4'-COOH) = N[C@@H](Cc1ccc(-c2ccc(C(=O)O)cc2)cc1)C(=O)O; 1Nal(3S-Me) = C[C@@H](c1cccc2ccccc12)[C@H](N)C(=O)O; Ala(indolin-1-yl) = N[C@@H](CN1CCc2ccccc21)C(=O)O; Trp(6-Cl) = N[C@@H](Cc1c[nH]c2cc(Cl)ccc12)C(=O)O; Phe(4-COOH) = N[C@@H](Cc1ccc(C(=O)O)cc1)C(=O)O; Trp(6-F) = N[C@@H](Cc1c[nH]c2cc(F)ccc12)C(=O)O; Trp(7-aza) = N[C@@H](Cc1c[nH]c2ncccc12)C(=O)O; h3Pal(5-CN) = N#Cc1cncc(CC[C@H](N)C(=O)O)c1; hTyr = N[C@@H](CCc1ccc(O)cc1)C(=O)O; hCha = N[C@@H](CCC1CCCCC1)C(=O)O; dDab = NCC[C@@H](N)C(=O)O; Orn = NCCC[C@H](N)C(=O)O; dDap = NC[C@@H](N)C(=O)O; dNMeA = CN[C@H](C)C(=O)O; Dap = NC[C@H](N)C(=O)O

First the molecules themselves.
B1: SEQ ID NO: 210 (Example No. 210) (peptide)
peptide: cyclo([TyrEtNAc][Trp(6-Cl)][Phe(4-COOH)]G[Pro(trans-4-NH2)][1Nal(3S-Me)]D[dNMeA]G[Bip(4'-COOH)][Trp(7-aza)]S[dDab][hCha])
SMILES: CC(=O)NCCOc1ccc(C[C@@H]2NC(=O)[C@H](CCC3CCCCC3)NC(=O)[C@@H](CCN)NC(=O)[C@H](CO)NC(=O)[C@H](Cc3c[nH]c4ncccc34)NC(=O)[C@H](Cc3ccc(-c4ccc(C(=O)O)cc4)cc3)NC(=O)CNC(=O)[C@@H](C)N(C)C(=O)[C@H](CC(=O)O)NC(=O)[C@H]([C@@H](C)c3cccc4ccccc34)NC(=O)[C@@H]3C[C@@H](N)CN3C(=O)CNC(=O)[C@H](Cc3ccc(C(=O)O)cc3)NC(=O)[C@H](Cc3c[nH]c4cc(Cl)ccc34)NC2=O)cc1
B2: SEQ ID NO: 215 (Example No. 215) (peptide)
peptide: cyclo([TyrEtNAc]W[Phe(4-COOH)]G[Pro(trans-4-NH2)][1Nal(3S-Me)]D[dNMeA]G[Bip(4'-COOH)][Trp(7-aza)]G[dDab][hTyr])
SMILES: CC(=O)NCCOc1ccc(C[C@@H]2NC(=O)[C@H](CCc3ccc(O)cc3)NC(=O)[C@@H](CCN)NC(=O)CNC(=O)[C@H](Cc3c[nH]c4ncccc34)NC(=O)[C@H](Cc3ccc(-c4ccc(C(=O)O)cc4)cc3)NC(=O)CNC(=O)[C@@H](C)N(C)C(=O)[C@H](CC(=O)O)NC(=O)[C@H]([C@@H](C)c3cccc4ccccc34)NC(=O)[C@@H]3C[C@@H](N)CN3C(=O)CNC(=O)[C@H](Cc3ccc(C(=O)O)cc3)NC(=O)[C@H](Cc3c[nH]c4ccccc34)NC2=O)cc1
B3: SEQ ID NO: 205 (Example No. 205) (peptide)
peptide: cyclo([Phe(4-(4-Ac-piperazinyl))]W[Phe(4-COOH)]G[Pro(trans-4-NH2)][1Nal(3S-Me)]D[dNMeA]G[Bip(4'-COOH)][DapAc]L[dDap][h3Pal(5-CN)])
SMILES: CC(=O)NC[C@@H]1NC(=O)[C@H](Cc2ccc(-c3ccc(C(=O)O)cc3)cc2)NC(=O)CNC(=O)[C@@H](C)N(C)C(=O)[C@H](CC(=O)O)NC(=O)[C@H]([C@@H](C)c2cccc3ccccc23)NC(=O)[C@@H]2C[C@@H](N)CN2C(=O)CNC(=O)[C@H](Cc2ccc(C(=O)O)cc2)NC(=O)[C@H](Cc2c[nH]c3ccccc23)NC(=O)[C@H](Cc2ccc(N3CCN(C(C)=O)CC3)cc2)NC(=O)[C@H](CCc2cncc(C#N)c2)NC(=O)[C@@H](CN)NC(=O)[C@H](CC(C)C)NC1=O
B4: SEQ ID NO: 214 (Example No. 214) (peptide)
peptide: cyclo([TyrEtNAc]W[Phe(4-COOH)]G[Pro(trans-4-NH2)][1Nal(3S-Me)]D[dNMeA]G[Bip(4'-COOH)][Trp(7-aza)]G[dDab][hCha])
SMILES: CC(=O)NCCOc1ccc(C[C@@H]2NC(=O)[C@H](CCC3CCCCC3)NC(=O)[C@@H](CCN)NC(=O)CNC(=O)[C@H](Cc3c[nH]c4ncccc34)NC(=O)[C@H](Cc3ccc(-c4ccc(C(=O)O)cc4)cc3)NC(=O)CNC(=O)[C@@H](C)N(C)C(=O)[C@H](CC(=O)O)NC(=O)[C@H]([C@@H](C)c3cccc4ccccc34)NC(=O)[C@@H]3C[C@@H](N)CN3C(=O)CNC(=O)[C@H](Cc3ccc(C(=O)O)cc3)NC(=O)[C@H](Cc3c[nH]c4ccccc34)NC2=O)cc1
B5: SEQ ID NO: 206 (Example No. 206) (peptide)
peptide: cyclo([Phe(4-(4-Ac-piperazinyl))]W[Phe(4-COOH)]G[Pro(trans-4-NH2)][1Nal(3S-Me)]D[dNMeA]G[Bip(4'-COOH)][Dap]L[dA][hCha])
SMILES: CC(=O)N1CCN(c2ccc(C[C@@H]3NC(=O)[C@H](CCC4CCCCC4)NC(=O)[C@@H](C)NC(=O)[C@H](CC(C)C)NC(=O)[C@H](CN)NC(=O)[C@H](Cc4ccc(-c5ccc(C(=O)O)cc5)cc4)NC(=O)CNC(=O)[C@@H](C)N(C)C(=O)[C@H](CC(=O)O)NC(=O)[C@H]([C@@H](C)c4cccc5ccccc45)NC(=O)[C@@H]4C[C@@H](N)CN4C(=O)CNC(=O)[C@H](Cc4ccc(C(=O)O)cc4)NC(=O)[C@H](Cc4c[nH]c5ccccc45)NC3=O)cc2)CC1
B6: SEQ ID NO: 212 (Example No. 212) (peptide)
peptide: cyclo([TyrEtNAc][Trp(6-F)][Phe(4-COOH)]G[Pro(trans-4-NH2)][1Nal(3S-Me)]D[dNMeA]G[Bip(4'-COOH)][Trp(7-aza)]S[dDab][hCha])
SMILES: CC(=O)NCCOc1ccc(C[C@@H]2NC(=O)[C@H](CCC3CCCCC3)NC(=O)[C@@H](CCN)NC(=O)[C@H](CO)NC(=O)[C@H](Cc3c[nH]c4ncccc34)NC(=O)[C@H](Cc3ccc(-c4ccc(C(=O)O)cc4)cc3)NC(=O)CNC(=O)[C@@H](C)N(C)C(=O)[C@H](CC(=O)O)NC(=O)[C@H]([C@@H](C)c3cccc4ccccc34)NC(=O)[C@@H]3C[C@@H](N)CN3C(=O)CNC(=O)[C@H](Cc3ccc(C(=O)O)cc3)NC(=O)[C@H](Cc3c[nH]c4cc(F)ccc34)NC2=O)cc1
B7: SEQ ID NO: 204 (Example No. 204) (peptide)
peptide: cyclo([Phe(4-(4-Ac-piperazinyl))]W[Phe(4-COOH)]G[Pro(trans-4-NH2)][1Nal(3S-Me)]D[dNMeA]G[Bip(4'-COOH)][DapAc]K[dA][h3Pal(5-CN)])
SMILES: CC(=O)NC[C@@H]1NC(=O)[C@H](Cc2ccc(-c3ccc(C(=O)O)cc3)cc2)NC(=O)CNC(=O)[C@@H](C)N(C)C(=O)[C@H](CC(=O)O)NC(=O)[C@H]([C@@H](C)c2cccc3ccccc23)NC(=O)[C@@H]2C[C@@H](N)CN2C(=O)CNC(=O)[C@H](Cc2ccc(C(=O)O)cc2)NC(=O)[C@H](Cc2c[nH]c3ccccc23)NC(=O)[C@H](Cc2ccc(N3CCN(C(C)=O)CC3)cc2)NC(=O)[C@H](CCc2cncc(C#N)c2)NC(=O)[C@@H](C)NC(=O)[C@H](CCCCN)NC1=O
B8: SEQ ID NO: 211 (Example No. 211) (peptide)
peptide: cyclo([TyrEtNAc][Trp(6-F)][Phe(4-COOH)]G[Pro(trans-4-NH2)][1Nal(3S-Me)]D[dNMeA]G[Bip(4'-COOH)][Ala(indolin-1-yl)]G[dDab][hTyr])
SMILES: CC(=O)NCCOc1ccc(C[C@@H]2NC(=O)[C@H](CCc3ccc(O)cc3)NC(=O)[C@@H](CCN)NC(=O)CNC(=O)[C@H](CN3CCc4ccccc43)NC(=O)[C@H](Cc3ccc(-c4ccc(C(=O)O)cc4)cc3)NC(=O)CNC(=O)[C@@H](C)N(C)C(=O)[C@H](CC(=O)O)NC(=O)[C@H]([C@@H](C)c3cccc4ccccc34)NC(=O)[C@@H]3C[C@@H](N)CN3C(=O)CNC(=O)[C@H](Cc3ccc(C(=O)O)cc3)NC(=O)[C@H](Cc3c[nH]c4cc(F)ccc34)NC2=O)cc1
B9: SEQ ID NO: 207 (Example No. 207) (peptide)
peptide: cyclo([Phe(4-(4-Ac-piperazinyl))]W[Phe(4-COOH)]G[Pro(trans-4-NH2)][1Nal(3S-Me)]D[dNMeA]G[Bip(4'-COOH)]KL[dA][hCha])
SMILES: CC(=O)N1CCN(c2ccc(C[C@@H]3NC(=O)[C@H](CCC4CCCCC4)NC(=O)[C@@H](C)NC(=O)[C@H](CC(C)C)NC(=O)[C@H](CCCCN)NC(=O)[C@H](Cc4ccc(-c5ccc(C(=O)O)cc5)cc4)NC(=O)CNC(=O)[C@@H](C)N(C)C(=O)[C@H](CC(=O)O)NC(=O)[C@H]([C@@H](C)c4cccc5ccccc45)NC(=O)[C@@H]4C[C@@H](N)CN4C(=O)CNC(=O)[C@H](Cc4ccc(C(=O)O)cc4)NC(=O)[C@H](Cc4c[nH]c5ccccc45)NC3=O)cc2)CC1
B10: SEQ ID NO: 209 (Example No. 209) (peptide)
peptide: cyclo([Phe(4-(4-Ac-piperazinyl))]W[Phe(4-COOH)]G[Pro(trans-4-NH2)][1Nal(3S-Me)]D[dNMeA]G[Bip(4'-COOH)][Orn]L[dA][hCha])
SMILES: CC(=O)N1CCN(c2ccc(C[C@@H]3NC(=O)[C@H](CCC4CCCCC4)NC(=O)[C@@H](C)NC(=O)[C@H](CC(C)C)NC(=O)[C@H](CCCN)NC(=O)[C@H](Cc4ccc(-c5ccc(C(=O)O)cc5)cc4)NC(=O)CNC(=O)[C@@H](C)N(C)C(=O)[C@H](CC(=O)O)NC(=O)[C@H]([C@@H](C)c4cccc5ccccc45)NC(=O)[C@@H]4C[C@@H](N)CN4C(=O)CNC(=O)[C@H](Cc4ccc(C(=O)O)cc4)NC(=O)[C@H](Cc4c[nH]c5ccccc45)NC3=O)cc2)CC1
B11: SEQ ID NO: 213 (Example No. 213) (peptide)
peptide: cyclo([TyrEtNAc][Trp(6-F)][Phe(4-COOH)]G[Pro(trans-4-NH2)][1Nal(3S-Me)]D[dNMeA]G[Bip(4'-COOH)][Trp(7-aza)]S[dDabMe3][hCha])
SMILES: CC(=O)NCCOc1ccc(C[C@@H]2NC(=O)[C@H](CCC3CCCCC3)NC(=O)[C@@H](CC[N+](C)(C)C)NC(=O)[C@H](CO)NC(=O)[C@H](Cc3c[nH]c4ncccc34)NC(=O)[C@H](Cc3ccc(-c4ccc(C(=O)O)cc4)cc3)NC(=O)CNC(=O)[C@@H](C)N(C)C(=O)[C@H](CC(=O)O)NC(=O)[C@H]([C@@H](C)c3cccc4ccccc34)NC(=O)[C@@H]3C[C@@H](N)CN3C(=O)CNC(=O)[C@H](Cc3ccc(C(=O)O)cc3)NC(=O)[C@H](Cc3c[nH]c4cc(F)ccc34)NC2=O)cc1

This test addresses Recombinant human IL-1β (BioLegend 579404) (human, UniProt P01584 117-269). The test can be described thus: cell-based or functional assay.
Take B1: the “MRC5 IC50” value was 20 pM.

For B2, the “MRC5 IC50” value came to 24 pM.

Regarding B3, the “MRC5 IC50” value stood at 10 pM.

For B4, the “MRC5 IC50” value stood at 20 pM.

In the case of B5, the “MRC5 IC50” value amounted to 15 pM.

In the case of B6, the “MRC5 IC50” value was found to be 25 pM.

Take B7: the “MRC5 IC50” value was determined as 9 pM.

As for B8, the “MRC5 IC50” value was 27 pM.

As to cyclo([Phe(4-(4-Ac-piperazinyl))]W[Phe(4-COOH)]G[Pro(trans-4-NH2)][1Nal(3S-Me)]D[dNMeA]G[Bip(4'-COOH)][LysAc]L[dA][h3Pal(5-CN)]) [SEQ ID NO: 208 (Example No. 208)], the “MRC5 IC50” value was found to be 18 pM.

For B9, the “MRC5 IC50” value amounted to 11 pM.

B10: the “MRC5 IC50” value is 9 pM.

For B11, the “MRC5 IC50” value was 18 pM.
